From patent US20240043505A1 (UNIVERSITY OF PITTSBURGH OF THE COMMONWEALTH SYSTEM OF …, published 2024)
Read-outs that look alike come from different tables or passages of the source.

Legend:
[1] = target: T1, SARS-CoV-2 spike receptor-binding domain (RBD) (SARS-CoV-2, UniProt P0DTC2 319-541); assay: indirect ELISA on coated RBD ('ELISA affinity')
[2] = target: N439K
[3] = target: A475V
[4] = target: T2, SARS-CoV-2 RBD E484K mutant (SARS-CoV-2, UniProt P0DTC2 334-527)
[5] = target: Y453F
[6] = target: N501Y
[7] = target: K417N
[8] = target: T1, SARS-CoV-2 spike receptor-binding …
[9] = target: T1, SARS-CoV-2 spike receptor-binding …; remark: listed apart in the source
[10] = target: T1, SARS-CoV-2 spike receptor-binding …; remark: listed apart in the source
[11] = target: T1, SARS-CoV-2 spike receptor-binding …; remark: listed apart in the source
[12] = target: N501Y; remark: listed apart in the source
[13] = target: T1, SARS-CoV-2 spike receptor-binding …; remark: listed apart in the source
[14] = target: T1, SARS-CoV-2 spike receptor-binding …; assay: ELISA
[15] = target: T2, SARS-CoV-2 RBD E484K mutant; assay: ELISA
[16] = target: T1, SARS-CoV-2 spike receptor-binding …; assay: SPR (Biacore 3000), RBD immobilised

B1: Nb95 (VHH)
VHH: QVQLVESGGGLVQAGGSLRLSCAASGRTFSSYSMGWFRQAQGKEREFVATINGNGRDTYYTNSVKGRFTISRDDATNTVYLQMNSLKPEDTAIYYCAADKDVYYGYTSFPNEYEYWGQGTQVTVSS
- IC50 [1]: 2.28 nM
- binding affinity fold change relative to RBD WT [2]: -2.19 fold
- binding affinity fold change relative to RBD WT [3]: 1.21 fold
- binding affinity fold change relative to RBD WT [4]: 1.15 fold
- binding affinity fold change relative to RBD WT [5]: -1.31 fold
- binding affinity fold change relative to RBD WT [6]: 1.37 fold
- binding affinity fold change relative to RBD WT [7]: 1.11 fold
- IC50 [8]: 6.05 nM
- EC50 (read off the curve) [9]: ~6 nM

B2: Nb105 (VHH)
VHH: HVQLVESGGGLVQAGGSLRLSCAVSGRTFSTYGMAWFRQAPGKERDFVATITRSGETTLYADSVKGRFTISRDNAKNTVYLQMNSLKIEDTAVYYCAVRRDSSWGYSRDLFEYDYWGQGTQVTVSS
- IC50 [1]: 0.26 nM
- binding affinity fold change relative to RBD WT [2]: 1.06 fold
- binding affinity fold change relative to RBD WT [3]: -1.1 fold
- binding affinity fold change relative to RBD WT [4]: 1.02 fold
- binding affinity fold change relative to RBD WT [5]: 1.31 fold
- binding affinity fold change relative to RBD WT [6]: -2.69 fold
- binding affinity fold change relative to RBD WT [7]: -1.45 fold
- EC50 (read off the curve) [10]: ~2 nM
- IC50 [8]: 0.97 nM

B3: Nb34 (VHH)
VHH: DVQLVESGGGLVQAGGSLRLSCAASGFTFSNYVMYWGRQAPGKGREWVSGIDSDGSDTAYASSVKGRFTISRDNAKNTLYLQMNNLKPEDTALYYCVKSKDPYGSPWTRSEFDDYWGQGTQVTVSS
- IC50 [1]: 0.47 nM
- binding affinity fold change relative to RBD WT [2]: 1.18 fold
- binding affinity fold change relative to RBD WT [3]: -1 fold
- binding affinity fold change relative to RBD WT [4]: 1.07 fold
- binding affinity fold change relative to RBD WT [5]: 1.2 fold
- binding affinity fold change relative to RBD WT [6]: -5.79 fold
- binding affinity fold change relative to RBD WT [7]: -1.96 fold
- EC50 (read off the curve) [11]: ~1 nM
- EC50 (read off the curve) [12]: ~7 nM
- IC50 [8]: 0.63 nM

B4: Nb36 (VHH)
VHH: HVQLVESGGGLVQAGGSLTLTCAASGRTFSSETMDMGWFRQAPGKEREFVAADSWNDGSTYYADSVKGRFTISRDSAKNTLYLQMNSLKPEDTAVYYCAAETYSIYEKDDSWGYWGQGTQVTVSS
- IC50 [1]: 1.04 nM
- binding affinity fold change relative to RBD WT [2]: 1.43 fold
- binding affinity fold change relative to RBD WT [3]: -1.13 fold
- binding affinity fold change relative to RBD WT [4]: 1.29 fold
- binding affinity fold change relative to RBD WT [5]: 1.32 fold
- binding affinity fold change relative to RBD WT [6]: 1.35 fold
- binding affinity fold change relative to RBD WT [7]: -2.94 fold
- EC50 (read off the curve) [13]: ~3 nM
- IC50 [8]: 1.7 nM

B5: Nb21 point mutant R31D (VHH)
VHH: QVQLVESGGGLVQAGGSLRLSCAVSGLGAHDVGWFRRAPGKEREFVAAIGANGGNTNYLDSVKGRFTISRDNAKNTIYLQMNSLKPQDTAVYYCAARDIETAEYTYWGQGTQVTVSS
- binding result [14]: no binding
- binding result [15]: no binding

B6: Nb89 (VHH)
VHH: HVQLVESGGGLVQAGGSLRLSCAASGGTFTTFRMAWFRQTPGKEREFVAASSWGFVNYADPVKGRFTISRDNAKNTVYLEMSSLKTEDTAVYYCAARNPGTGQYDYWGQGTQVTVSS
- IC50 [1]: 1.09 nM
- Kd [16]: 0.108 nM
- koff [16]: 0.000624 s⁻¹
- kon [16]: 5.78e+06 M⁻¹ s⁻¹

B7: Nb91 (VHH)
VHH: HVQLVESGGGLVQPGGSLRLSCAASGLTLNDYAIGWFRQAPGKEREGVSCISSSDGTTYYADSVKGRFTISRDNAKNTVYLQMNSLKPEDTAVYYCATDIAPFYCSWPLRTRLVEYWGQGTQVTVSS
- IC50 [1]: 1.28 nM

B8: Nb92 (VHH)
VHH: HVQLVESGGGLVQAGGSLRLSCAASGRTFSAYGMGWFRQAPGKEREFVAGIARSGSEYYGDSVKGRFTISRDNAKNTVYLQMASLKAEDTGVYYCAADPTILYHALSQRTQNYRYWGPGTQVTVSS
- IC50 [1]: 4.92 nM

B9: Nb93 (VHH)
VHH: EVQLVESGGGLVQPGGSLRLSCAASGFTFSSYAMSWVRQAPGKGREWVAGITPGSGTFYADSVKGRFTISRDNAKNTLSLEINSLKPEDTALYYCAKCRQEFSWDFSSRDPDDFDYWGQGTQVTVSS
- IC50 [1]: 1.15 nM

B10: Nb94 (VHH)
VHH: QVQLVESGGGLVQAGGSLRLSCTASGGTFRSFTMAWFRQAPGKEREFVATLSWTGVGTYYADSVKGRFTISRDIAKNTVYLEMNSLIPEDTAVYYCAASPYTYSLLSRTGDYGYWGQGTQVTVSS
- IC50 [1]: 0.5 nM

B11: Nb9 (VHH)
VHH: HVQLVESGGGLVQTGGSLRLSCAFSGYTFSTFPTAWFRQAPGKEREFVAGIRWNGGSRDYTEYADFVKGRFTISRDNAKNMIYLQMISLKPEDTALYYCAASHGVVDGTSVNGYRYWGQGTQVTVSS
- IC50 [1]: 0.89 nM

B12: Nb96 (VHH)
VHH: HVQLVESGGGLVQAGDSLRLSCAASGRDFSSYAMGWFRQAPGKEREFVGVISSGDVGTFYEDSVKGRFTISRDDAKNTVDLQMNSLKPEDTAVYYCAAALYVTSTRGSYAYWGQGTQVTVSS
- IC50 [1]: 0.04 nM

B13: Nb97 (VHH)
VHH: HVQLVESGGGLVQAGGSLRLSCAAPGRTFSTSAMGWFRQAPGKEREFVAAIDWSNTNIHYADTVKGRFTISTDTAKNTVYLQMNNLKPEDTAVYYCAQGGWGLTQPISVDYWGKGTQVTVSS
- IC50 [1]: 0.32 nM

B14: Nb99 (VHH)
VHH: QVQLVESGGGLVQTGGSLRLSCAASGSTRSIWYSGWYRQAPGKQRELVASLTSGGTTYYPDSMKGRFTISGSSGLNMVYLQMNSLRPEDTAVYSCNVRTGSGVYWGQGTQVTVSS
- IC50 [1]: 0.35 nM

B15: Nb102 (VHH)
VHH: QVQLVESGGGLVQAGGSLRLSCAASGRTFSNSHMGWFRQAPGKEREFVAVISRSGGSTLYADSVKGRFTISRDNAKNTVYLQMNSLKPEDTAVYYCAASRTAGLTSNRSLYDYWGRGTQVTVSS
- IC50 [1]: 28.4 nM

B16: Nb10 (VHH)
VHH: DVQLVESGGGLVQAGGSLKLSCTASESTFNFNHIDWYRQAPGKQRESVAVITNTDVTNYADSVKGRFTISRDNAKNTVYLQMNSLKPEDTAVYLCNAWRFGPTGVKVDYWGQGTQVTVSS
- IC50 [1]: 0.24 nM

B17: Nb107 (VHH)
VHH: HVQLVESGGGLVQAGGSLRLSCAASGRAIGIHRMAWFRQAPGKERAFVAAIQWTGDMPTYADSLKGRFTISADNAKNTVSLQMTSLKPDDTAVYYCAARSATTALYDYWGQGTQVTVSS
- IC50 [1]: 0.76 nM

B18: Nb12 (VHH)
VHH: HVQLVESGGGLVQAGGSLRLTCAASGGTFSTSTMDMGWFRQAPGKEREFVAVDSWNDGRAYYADSVKGRFTISRDSAKTTLYLQMNSLKPEDTAVYYCAARTERGVYDYWGRGTQVTVSS
- IC50 [1]: 539 nM
